± gives the uncertainty stated by the source.

A short description of the series: amyloid nucleation score (Sup35N fusion, yeast selection) (log enrichment); library NNK3; higher = more nucleation; inactive = no reads after selection. An outline of the steps: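 The nucleation score is the DiMSum log enrichment of output over input reads, centred on the mode score of non-aggregating sequences. Only sequences with 100 or more input reads were scored, using Illumina sequencing of input and output plasmid inserts. Psi-negative yeast expressing Sup35N fused to peptides of 20 random codons were induced 24 hours with 100 μM copper sulfate and grown 7 days at 30°C on medium lacking adenine and uracil.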
MMYRSRFGLKMLPGLQPAIA: the amyloid nucleation score entry was “inactive”.
With ERRVLISERAQWISLLYGIL the entry was “inactive”; with WGDDGNTFYE, “inactive”; with PEGPDLTLILAIKPKLSCRG, “inactive”.
With YCVFGWIKAWPGGLVVNEFR the entry was “inactive”; with IQSAMSLIVIYHGK, 2.69 ± 0.076; with RSWSLCIGFMFFVRNS, “inactive”.
The value for RYNNYTSESGPCN was “inactive”; that for SLKRHQTWLDGVEVRVVYMP was “inactive”; that for VSNYDLESS was “inactive”.
Consider ISTIRYNISYANAYYSSRQG, for which the amyloid nucleation score was determined as 0.699 ± 0.21.
Turning to ENNVRTVHVISWAIFLSTYF, the amyloid nucleation score result is “inactive”.
With TYLIYGGG the entry was “inactive”.
With NMDNHTPG the entry was “inactive”.
With SNSSHRRYYGHVRRNL the entry was “inactive”.
Consider THSVIFRVRYHLSYNAIRIF, for which the amyloid nucleation score entry was “inactive”.
With EYQTNNDYLQLTCLKSSWSS the entry was “inactive”; with LMIVLKLP, “inactive”; with RANDEEFHR, “inactive”.
LVVCGVRWSMFIGIS: the amyloid nucleation score entry was “inactive”.
For the substance DVFVHHDM, the amyloid nucleation score result is “inactive”.
For the substance SNRGVADLDLRGLWTARE, the amyloid nucleation score result is “inactive”.
With ILKLQEQTSNGLAVSNESSC the entry was “inactive”; with CVQLKSTSHVYYFRDQVGLD, 1.41 ± 0.087; with GMGCTMLNYLMLWESFDTRP, 0.586 ± 0.17.
The value for VSIIVRYQL was 1.93 ± 0.096; that for TASYSLVVVVENRKSCMVDN was “inactive”; that for FVSLHTRLGDLHDVVCTLVF was “inactive”.
With VLCHKSKWNMH the figure was 0.322 ± 0.26; with STSYSSAL, “inactive”; with IGRPGVRYNLKCRGRIRG, “inactive”.
For AWLMRLMSYLGSSGWE, the amyloid nucleation score entry is “inactive”.
For the substance YTYWG, the amyloid nucleation score entry is “inactive”.
With LNTLGKNNIKRSILRRSLYY the entry was “inactive”.
Take IRRRLEMLNTSLYSHI: the amyloid nucleation score result was “inactive”.
In the case of SDGSNKVLESRCDSLHNVIV, the amyloid nucleation score entry was “inactive”.
With LLRVNSEAGESCQVSFTFNM the figure was 1.73 ± 0.093; with TASRFFCRWVYFRKGVSRCS, “inactive”; with GKVSAFCMHGGYTCDLSVEL, “inactive”.
Take VDFLCNPWVERINGYVWEVV: the amyloid nucleation score entry is “inactive”.
For the substance LVRLGMQRCRPLT, the amyloid nucleation score entry was “inactive”.
With ALAMTFVNIDKSFFFNVYSM the figure was 2.89 ± 0.069.
For the substance TGFSVFYSVYRRQGH, the amyloid nucleation score is 0.912 ± 0.19.
The value for LVIGVYWDRSPLVSSPFPLN was “inactive”; that for YCCDLYLN was “inactive”; that for NKYLMINLGYQGSKENDIGV was “inactive”.
The value for LRQVNQWVDVKASDPNGTAL was “inactive”; that for GILFYTHGRKDASD was -0.348 ± 0.5.
With AFSIYHRIIIMRFRKYNIFA the entry was “inactive”; with LSLNLRYHQPVNWNSRDTCL, 1.31 ± 0.12; with LTPSECMENYRGFSDMRRCP, “inactive”.
On to GDHYGVEYSHPL, for which the amyloid nucleation score result was “inactive”.
With GRRTARKIKAGPYLCWKDGT the entry was “inactive”; with LMPWTMSIWGL, “inactive”; with ESNRTFTKSTFFLTNEVKGL, “inactive”.
The value for YLNDCDFGVVFEMESKLWTA was “inactive”.
The value for GLLCFK was “inactive”.
FVCRNLTFPMGHQSIMSMWD showed an amyloid nucleation score of -0.117 ± 0.75.
With IRTFIIQADSSVVPIKVFYR the figure was 1.55 ± 0.099.
With NSKLRLFWRTGMVHSVVDVS the entry was “inactive”.
Consider HCPVSIY, for which the amyloid nucleation score entry is “inactive”.
VTCNVSSYGTMKEKVAYEGS returned an amyloid nucleation score of -0.003 ± 0.88.
With SKPYYYMVYIESEVVVYLFG the entry was “inactive”.
The value for CDWPPAFYQC was “inactive”; that for NWGMTNAFFISGKRSGMSSM was 0.42 ± 0.38; that for CFDFSCVFLKEMQYGGETGS was 1.07 ± 0.12.
The value for DDIYKEVDRWKNWYRRLKHT was “inactive”; that for CEIVFQYVFNFFSPTTSVVC was 1.54 ± 0.089; that for PTSVY was 0.481 ± 0.32.
For EMGEGIL, the amyloid nucleation score result was “inactive”.
For LIHVGRFTVRTKL, the amyloid nucleation score result is “inactive”.
With FQRVGRFPSYSTCAGRVATG the entry was “inactive”; with SIIRNKFVAMNMNSVNM, 0.831 ± 0.095.
With FLSDSLNARS the entry was “inactive”; with SCSWVREWYRRLHRWGCGQW, 0.656 ± 0.28.
With FGIEQTWSNECSVKTVEMRC the entry was “inactive”.
On to SRCWGDILPLNIQYLMR, for which the amyloid nucleation score entry was “inactive”.
With LVASSRW the entry was “inactive”.
For the substance GQTILC, the amyloid nucleation score result is “inactive”.
For the substance GIAIDREKVVPIRGYLWSVT, the amyloid nucleation score result was “inactive”.
The substance LGVYYVNNRYFADFKGVEHG came in with an amyloid nucleation score of 0.154 ± 0.67.
With FLQNFWA the entry was “inactive”; with VRAMCLPHV, “inactive”.
The value for ISQQTFNFALSMCTSPASRI was “inactive”; that for WQNEMYGRCVLCKLRYNEPD was “inactive”; that for SSDSYLVRESDKSSEWGTRN was “inactive”.
With SFSKNVVDL the entry was “inactive”; with AVEEHLIHLSCCVQAVNRRV, 2.36 ± 0.074; with NLFSEFGMFNGKGPVGTSVG, “inactive”.
For the substance SLIITTLTHEYCMCHRIWST, the amyloid nucleation score turned out to be 2.25 ± 0.071.
The value for LFAYRWGIYFRLKVEYFVDS was “inactive”; that for LVWVKLAANAFVV was 1.4 ± 0.074; that for GPTNGFMSLNNWYQPLDQPV was “inactive”.
The value for LSVLWYSWWGFNTG was “inactive”; that for TNRWSIFTVVLSTMNVASFV was 0.974 ± 0.18; that for KLTPRFICVMCTCLIRL was “inactive”.
The value for RLFKSGEFDFCYIRGHCCSV was “inactive”; that for KKRSMD was “inactive”.

The values are drawn from the supplement of paper PMC12042874.
